In publication PMC6972956:

What was measured:
[1] = biological target: recombinant integrin αIIbβ3 stably expressed on K562 cells (UniProt P08514); test: flow cytometry on cells; mAb PT-25-activated αIIbβ3-K562 cells incubated 30 min at RT with serially diluted unlabeled Hr10, hFN10 or eptifibatide in the presence of 0.5 µM Alexa647-conjugated FB; buffer A
[2] = biological target: recombinant integrin αVβ3 stably expressed on K562 cells (UniProt P06756); test: flow cytometry on cells; displacement of Alexa647-labeled hFN10 from αVβ3-K562 cells by unlabeled hFN10 or Hr10; buffer A (1 mM MgCl2, 1 mM CaCl2), RT
Sequence of UniProt P06756 (P06756 31-1048, chain 1 of 2): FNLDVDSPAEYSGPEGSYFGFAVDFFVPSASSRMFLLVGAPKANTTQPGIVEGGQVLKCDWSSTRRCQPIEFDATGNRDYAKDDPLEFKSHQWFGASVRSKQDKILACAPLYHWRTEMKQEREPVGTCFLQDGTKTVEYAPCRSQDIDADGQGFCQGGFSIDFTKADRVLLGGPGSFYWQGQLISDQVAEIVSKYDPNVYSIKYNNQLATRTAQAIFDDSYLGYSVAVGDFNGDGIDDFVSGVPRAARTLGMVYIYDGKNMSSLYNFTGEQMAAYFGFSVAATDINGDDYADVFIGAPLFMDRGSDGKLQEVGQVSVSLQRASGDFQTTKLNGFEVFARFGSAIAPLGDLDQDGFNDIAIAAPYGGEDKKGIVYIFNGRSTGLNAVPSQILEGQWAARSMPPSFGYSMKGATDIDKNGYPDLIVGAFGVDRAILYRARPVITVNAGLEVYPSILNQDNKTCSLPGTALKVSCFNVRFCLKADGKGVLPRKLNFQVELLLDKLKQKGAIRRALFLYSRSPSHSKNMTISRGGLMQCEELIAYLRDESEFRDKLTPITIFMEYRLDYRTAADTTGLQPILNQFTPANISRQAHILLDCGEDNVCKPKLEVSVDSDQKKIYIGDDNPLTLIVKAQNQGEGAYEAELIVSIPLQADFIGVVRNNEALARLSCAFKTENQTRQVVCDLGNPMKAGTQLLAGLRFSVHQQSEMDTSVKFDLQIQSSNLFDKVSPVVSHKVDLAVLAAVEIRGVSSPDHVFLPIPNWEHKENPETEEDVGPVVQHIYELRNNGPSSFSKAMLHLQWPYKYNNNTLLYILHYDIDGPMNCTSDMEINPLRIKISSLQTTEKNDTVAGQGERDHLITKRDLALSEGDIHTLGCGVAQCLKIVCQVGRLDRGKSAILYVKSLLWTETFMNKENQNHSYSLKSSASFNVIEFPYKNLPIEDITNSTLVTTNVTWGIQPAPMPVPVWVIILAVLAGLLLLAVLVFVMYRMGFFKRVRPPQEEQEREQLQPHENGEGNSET
Sequence of UniProt P06756 (P05106 27-788, chain 2 of 2, further chain): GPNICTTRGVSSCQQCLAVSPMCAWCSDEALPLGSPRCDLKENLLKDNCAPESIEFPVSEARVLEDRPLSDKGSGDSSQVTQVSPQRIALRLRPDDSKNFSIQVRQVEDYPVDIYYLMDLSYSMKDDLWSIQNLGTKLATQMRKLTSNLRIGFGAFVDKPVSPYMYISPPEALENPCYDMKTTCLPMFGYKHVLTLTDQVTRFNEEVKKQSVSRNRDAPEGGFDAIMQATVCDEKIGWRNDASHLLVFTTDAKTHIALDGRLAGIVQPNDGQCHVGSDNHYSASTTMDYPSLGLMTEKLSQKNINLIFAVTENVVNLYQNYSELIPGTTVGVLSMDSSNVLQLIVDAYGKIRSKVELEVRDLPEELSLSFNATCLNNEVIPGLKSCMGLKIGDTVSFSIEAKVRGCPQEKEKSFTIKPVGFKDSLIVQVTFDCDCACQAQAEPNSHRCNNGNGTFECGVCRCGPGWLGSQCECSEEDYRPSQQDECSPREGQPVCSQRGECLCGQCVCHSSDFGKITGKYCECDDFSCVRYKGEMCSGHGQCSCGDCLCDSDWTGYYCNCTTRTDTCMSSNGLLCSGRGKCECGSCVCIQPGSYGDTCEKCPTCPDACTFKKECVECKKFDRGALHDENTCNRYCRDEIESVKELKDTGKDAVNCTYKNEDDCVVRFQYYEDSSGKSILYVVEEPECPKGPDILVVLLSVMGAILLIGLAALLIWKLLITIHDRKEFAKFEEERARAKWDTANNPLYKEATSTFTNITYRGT

Substance	IC50 [1]	IC50 [2]
eptifibatide (peptide)	73.2 nM	–
hFN10 (from UniProt P02751 1539-1631) (designed binder)	474 nM	3.6 nM
